Article PMC10368638, “Differential CaKAN3-CaHSF8 associations underlie distinct immune and heat responses under high temperature and high humidity conditions”

Biological target: CaKAN3-GST (Capsicum annuum? (pepper), UniProt A0A2G2Z1N1 1-250)
Experiment: EMSA; EMSA: 20 uL; 5x binding buffer printed as 1 M Tris-HCl pH 7.5, 5 M NaCl, 1 M KCl, 1 M MgCl2, 0.5 M EDTA pH 8.0, 10 mg/mL BSA (apparently stock concentrations)
Details: protein: recombinant; tags: GST (pDEST-15); label: Cy5; blunt

CaKAN3-GST, sequence (A0A2G2Z1N1 entry or part of it): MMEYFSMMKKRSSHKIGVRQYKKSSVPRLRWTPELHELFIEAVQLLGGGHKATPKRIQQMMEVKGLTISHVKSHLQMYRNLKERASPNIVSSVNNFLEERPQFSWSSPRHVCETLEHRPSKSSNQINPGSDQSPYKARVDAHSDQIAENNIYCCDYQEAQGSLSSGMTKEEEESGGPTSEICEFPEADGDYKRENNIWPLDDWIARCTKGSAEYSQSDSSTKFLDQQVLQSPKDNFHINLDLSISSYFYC

Binder | binding result
3x AACAA probe (dsDNA) DNA 1: AACAAAACAAAACAA DNA 2: TTGTTTTGTTTTGTT | binds
3x AACAAm probe (3xAAAAA) (dsDNA) DNA 1: AAAAAAAAAAAAAAA DNA 2: TTTTTTTTTTTTTTT | no binding
